Assay in all cases: two-hybrid library CCNG1;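 also: natural log of median RNA to DNA barcode read ratio; higher means stronger binding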
Experiment [1] has as its target T1, 4H2839-bA.
T1 chain: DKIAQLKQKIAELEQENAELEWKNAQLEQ

For experiment [2], the target named is T2, 4H2915-bA.
T2 chain: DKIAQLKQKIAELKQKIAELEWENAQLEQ

For experiment [3], the target named is T3, 4H3277-bA.
T3 chain: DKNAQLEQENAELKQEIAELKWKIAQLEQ

In experiment [4] the target is T4, 4H477-bA.
T4 chain: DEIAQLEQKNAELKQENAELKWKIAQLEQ

Experiment [5] deals with T5, 4H40-bA.
T5 chain: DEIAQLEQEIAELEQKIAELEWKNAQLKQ

The target of experiment [6] is T6, 4H741-bA.
T6 chain: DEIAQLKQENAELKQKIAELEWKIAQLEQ

The target in experiment [7] is T7, 4H319-bA.
T7 chain: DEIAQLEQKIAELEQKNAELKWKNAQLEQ

Experiment [8] addresses T8, 4H2503-bA.
T8 chain: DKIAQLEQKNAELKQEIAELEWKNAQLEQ

The target of experiment [9] is T9, 4H2692-bA.
T9 chain: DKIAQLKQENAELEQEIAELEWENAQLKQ

Experiment [10] has as its target T10, 4H2717-bA.
T10 chain: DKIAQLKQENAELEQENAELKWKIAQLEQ

In experiment [11] the target is T11, 4H348-bA.
T11 chain: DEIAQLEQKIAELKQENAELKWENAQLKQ

Experiment [12] deals with T12, 4H492-bA.
T12 chain: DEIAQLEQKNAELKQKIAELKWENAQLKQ

The target in experiment [13] is T13, 4H2588-bA.
T13 chain: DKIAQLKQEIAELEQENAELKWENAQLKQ

Experiment [14] concerns the target T14, 4H687-bA.
T14 chain: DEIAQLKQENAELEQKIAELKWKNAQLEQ

In experiment [15] the target is T15, 4H3057-bA.
T15 chain: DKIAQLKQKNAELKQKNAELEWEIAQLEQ

The target in experiment [16] is T16, 4H3162-bH.
T16 chain: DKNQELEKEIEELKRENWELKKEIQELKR

In experiment [17] the target is T17, P9mS.
T17 chain: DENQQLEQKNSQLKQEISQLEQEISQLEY

Experiment [18] addresses T18, P7mS.
T18 chain: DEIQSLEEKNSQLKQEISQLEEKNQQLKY

Experiment [19] addresses T19, P8mS.
T19 chain: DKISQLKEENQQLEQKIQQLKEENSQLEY

In experiment [20] the target is T20, O2-bN.
T20 chain: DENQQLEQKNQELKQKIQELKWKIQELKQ

Experiment [21] addresses T21, O7-bN.
T21 chain: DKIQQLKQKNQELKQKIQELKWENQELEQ

The target in experiment [22] is T22, O15-bN.
T22 chain: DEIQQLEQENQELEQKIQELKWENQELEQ

Experiment [23] deals with T23, O16-bN.
T23 chain: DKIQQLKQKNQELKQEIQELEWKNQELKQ

In experiment [24] the target is T24, O9-bN.
T24 chain: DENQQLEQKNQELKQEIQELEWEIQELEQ

The target in experiment [25] is T25, O8-bN.
T25 chain: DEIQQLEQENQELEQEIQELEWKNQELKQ

For experiment [26], the target named is T26, O3-bN.
T26 chain: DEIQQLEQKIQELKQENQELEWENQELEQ

In experiment [27] the target is T27, O4-bN.
T27 chain: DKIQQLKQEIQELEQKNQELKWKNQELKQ

In experiment [28] the target is T28, O6-bN.
T28 chain: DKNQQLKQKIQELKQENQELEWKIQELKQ

Experiment [29] deals with T29, O5-bN.
T29 chain: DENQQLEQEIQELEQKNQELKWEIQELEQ

Experiment [30] deals with T30, 4H607-bA.
T30 chain: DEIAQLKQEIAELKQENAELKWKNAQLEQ

The target in experiment [31] is T31, 4H3782-bA.
T31 chain: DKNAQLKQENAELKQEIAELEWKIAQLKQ

The target in experiment [32] is T32, 4H953-bA.
T32 chain: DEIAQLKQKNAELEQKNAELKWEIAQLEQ

Experiment [33] has as its target T33, 4H4001-bA.
T33 chain: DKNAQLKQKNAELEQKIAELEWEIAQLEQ

The target of experiment [34] is T34, 4H908-bA.
T34 chain: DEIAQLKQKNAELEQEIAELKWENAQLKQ

Experiment [35] concerns the target T35, 4H3427-bA.
T35 chain: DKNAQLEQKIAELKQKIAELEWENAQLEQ

In experiment [36] the target is T36, 4H883-bA.
T36 chain: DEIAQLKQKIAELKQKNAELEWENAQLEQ

The target in experiment [37] is T37, 4H967-bA.
T37 chain: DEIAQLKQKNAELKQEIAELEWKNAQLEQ

Experiment [38] has as its target T38, 4H3855-bA.
T38 chain: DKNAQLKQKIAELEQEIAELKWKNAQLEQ

The target of experiment [39] is T39, 4H568-bA.
T39 chain: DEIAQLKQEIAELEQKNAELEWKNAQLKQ

Experiment [40] has as its target T40, 4H338-bA.
T40 chain: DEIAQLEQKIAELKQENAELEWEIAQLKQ

Experiment [41] addresses T41, 4H754-bA.
T41 chain: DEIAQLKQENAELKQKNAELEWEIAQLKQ

The target of experiment [42] is T42, 4H918-bA.
T42 chain: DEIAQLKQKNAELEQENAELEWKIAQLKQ

Experiment [43] addresses T43, 4H797-bA.
T43 chain: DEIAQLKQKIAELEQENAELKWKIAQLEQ

Experiment [44] deals with T44, O15-bH.
T44 chain: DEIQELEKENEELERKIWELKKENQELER

For experiment [45], the target named is T45, 4H717-bA.
T45 chain: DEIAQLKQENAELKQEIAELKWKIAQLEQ

Experiment [46] has as its target T46, 4H72-bA.
T46 chain: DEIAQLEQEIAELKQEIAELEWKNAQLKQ

Experiment [47] concerns the target T47, 4H454-bA.
T47 chain: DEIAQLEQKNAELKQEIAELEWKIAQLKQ

As to DKIAQLEQKNAELKQEIAELEWKNAQLEQ [4H2503-bA], the interaction score in experiment [1] is -0.791; in [2] it was -0.804; in experiment [3], -0.659; in experiment [4], -0.816; in experiment [5] it was -0.475; in experiment [6] it was -0.407. In addition, the interaction score in experiment [7] was -1.63; in [8], -0.591; in experiment [9] it was 0.466; in experiment [10], -0.684; in experiment [11] it was -1.13; in experiment [12] it was -0.351. Also, the interaction score was -0.447 in [13], 1.12 in [14], -0.42 in experiment [15] and -2.22 in experiment [16].
For DEIQSLEEKNSQLKQEISQLEEKNQQLKY [P7mS], the interaction score in experiment [17] was 0.076; in experiment [18] it was -0.531; in experiment [19], 1.28.
DEIQQLEQENQELEQKIQELKWENQELEQ [O15-bN]: the interaction score in experiment [20] is -1.5; in experiment [21], 1.29; in experiment [22] it was -0.195; in experiment [23], 1.92; in experiment [24] it was -0.491; in experiment [25] it was -1.62. The interaction score was -0.189 in experiment [26], 0.275 in [27], -0.314 in experiment [28] and -0.822 in experiment [29].
Regarding DKNQQLKQKIQELKQKNQELKWEIQELEQ [O13-bN], the interaction score in [20] was -1.79; in experiment [21], -1.39; in experiment [22] it was -0.801; in experiment [23] it was -1.23; in experiment [24], -1.61; in [25], -1.07. The interaction score in experiment [26] was -0.827; in [27], -2.32; in experiment [28], -0.733; in [29] it was -2.42.
Turning to DEIAQLEQKIAELKQENAELEWEIAQLKQ [4H338-bA], the interaction score was -0.707 in experiment [30]; -0.133 in [31]; -0.0976 in experiment [32]; 0.217 in experiment [33]; -0.695 in experiment [34]; 0.0707 in [35]. Also, the interaction score in experiment [36] is -0.973; in experiment [37], 0.424; in [38], -0.445; in experiment [39], 0.415; in experiment [40] it was 0.363; in experiment [41], -0.95. For the same molecule, the interaction score is -1.39 in [42]; -0.317 in [43]; -1.18 in experiment [14]; 0.0935 in [44]; -0.573 in experiment [45]; -0.139 in experiment [46]. The molecule also displayed an interaction score in experiment [47] of 2.01.
On to DENQQLEQEIQELEQENQELEWKIQELKQ [O14-bN], for which the interaction score is 0.0465 in [20]; 1.78 in [21]; -0.117 in experiment [22]; 1.69 in experiment [23]; -0.149 in experiment [24]; -1.68 in experiment [25]. Moreover, the interaction score in [26] is 0.477; in experiment [27] it was -1.01; in [28], 0.642; in experiment [29] it was -0.308.

(Values after paper PMC10397247.)
